Assay: yeast display, Sf9 membrane polyspecificity reagent, FACS + sequencing; frameworks hold sequencing errors
Procedure, shortened: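 Using colony PCR, genes from sorted yeast display clones were amplified, then sequenced on MiSeq at 2 × 250 and filtered by CDR length. The clones had been stained with 10% biotinylated, detergent-solubilized Sf9 membrane reagent for 1 hour at 4 °C and sorted by FACS into low and high (top ~1%) gates on anti-HA and streptavidin fluorescence. Polyreactivity labels come from the gate of origin.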
With “QVQLVESGGGLVQAGGSLRLSCAASGSIFRYYAMGWYRQAPGKERELVAAIRRSGASTYYADSVKGRFTISRDNAKNTVYLHMNSLKPEDTAVYYCAASSFNNGHRYDYWGQGTQVTVSS” the “polyreactivity (PSR sort gate)” value was “high polyreactivity”.
For “QVQLVESGGGLVQAGGSLRLSSAASGFILNRNAMGWYRQAPGKVRELVAAISKSGGSTYYADSVKGRFTISRDNAKNTVYLQMNRLKPEDTAVYYCAAYTYLGRYEARRDYWGQGTQVTVSS”, the “polyreactivity (PSR sort gate)” value was “high polyreactivity”.
With “QVQLVESGGGLVQAGGSLRLSCAASGAMGWYRQAPGKERELVAAITQSGGSTRYADSVKGRFTISRDNAKNTVYLQMNSLKPEDTAVYYCKAEDPREWDPYYQDGFDFWGQGTQVTVSS” the “polyreactivity (PSR sort gate)” value was “low polyreactivity”.
With “QVQLVESGGGLVQAGGSLRLSCAASGGTFDSYVMGWYRQAPGKERELVAAITWSGGSTYYAESVKGRFTISRDNAKNTVYLQMNSLKPEDTAVYYCNNGGSTTYAYDYWGQGTQVTVSS” the “polyreactivity (PSR sort gate)” value was “low polyreactivity”.
With “QVQLVESGGGLVQAGGSLRLSCAASGRIFGYHARGWSRQAPGKERELVAAIDYTGGSTYYADSVKGRFTISRDNAKNTVYLQMNSLKPEETAVNYCAKDRTTPWEEDAYWGQGTQVTVSS” the “polyreactivity (PSR sort gate)” value was “low polyreactivity”.
With “QVQLLESGGGLVQAGGSLRLSCAASGRTFWYYVMGWYRQAPGKERELFAAITSSGGSTYYADSVKGRFTISRDNAKNSVYLQMNSLKAEDTSVYYCGAAAYTRGYYWGQGTEVTVSS” the “polyreactivity (PSR sort gate)” value was “low polyreactivity”.
For “QVQLVESGGGLVQAGGSLRLSCAASGSTLKRYAMGWYRQAPGKERELVARISRIGGSTFYADSVKGRFTISRDNAKNTVYLQMNSLNPEDTAVYYCAAVPLHYVYRADQAYYRYNYWGQGTQVTVSS”, the “polyreactivity (PSR sort gate)” value was “high polyreactivity”.
With “QVQLVESGGGLVQAGGILRLSCSASGRTLPAYVMGWYRQAPGKERELVAAITSGGGGTYFADSVKGRFTISRDNAKNTVYLQMNSMKPEDTAVYYCATTGNFFHYVYDFDYYYWGQGTQVTLSS” the “polyreactivity (PSR sort gate)” value was “low polyreactivity”.
With “QVQIVESGGGLVQAGGSLRLSCAPSGSTFGSNAMGWYRQAPGKERELVAAIRWSGGSTYYADSVKGRFTISRDNAKNTVYLQMNSLKPEDTAVYYCNAVYGRQYRGYNYKYYYWGQGTQVTVSS” the “polyreactivity (PSR sort gate)” value was “high polyreactivity”.
In the case of “QVQLVESGGGLVQAGGSLRLSCAASGSTFYYYAMGRYRQAPGKEMELVATISRGGSTNYADSVKGRFTISRDNAKNTVYLQMNSLKPEDTAVYYCAIGYLRPYGSHRESTPYDYWGEGTQVTVSS”, the “polyreactivity (PSR sort gate)” value is reported as “low polyreactivity”.
With “QVQLVESGGGLVQAGGSLRLSCAASGITFGTNAMGWYRQAPGKERELVAAISGGGGSTYYADSVKGRFTISRDNAKYTVYLQMTCLKPEDTAFYYCAARRFKRSSLSFYVGYYYWGQGTQVTVSS” the “polyreactivity (PSR sort gate)” value was “high polyreactivity”.
With “QVQLVESGGGLVQAGGSLRLICAASGRTFGSNAMGWYTQAPGKERELVAAIRERGGSTYADSVKGRFTISRDNAKNTVYLQMNCLKQEDTAVYYCNAVYVRSSLYYTGWSTFYYWGQGTQVTVSS” the “polyreactivity (PSR sort gate)” value was “low polyreactivity”.
In the case of “QVQLVESGGGLVQAGGSLRLSCAASGSTFKYYPMGWYRQAPGKERELVAAITSTGSTNYADSVKGRFTISRDNAKNTVYLQMNSRKPEDTAVYYCAKKYFYSTYYSWGHGTQVTVSS”, the “polyreactivity (PSR sort gate)” value is reported as “low polyreactivity”.
For “QVQLVESGGGLVQAGGSLRLSCAASGSTFGAYAMGWYRQAPGKEMELVAAISRRGGSTYYADSVKGRFTISRDNAKNTVYLQMNSLKPEDTAVYYCNAVGTRVDGEHYYWGQGTKVTVSS”, the “polyreactivity (PSR sort gate)” value was “high polyreactivity”.
With “QVQLVESGGGLVQAGGSLRLSCAASGSTFWGYAMAWYRQAPGKERELVATINQSAGSTYYADSVKGRFTISRDNAKNTVYLQMNSLKPEDTAVYYCAAEARVQFSYDYWGQGTQVTVSS” the “polyreactivity (PSR sort gate)” value was “low polyreactivity”.
For “QVQLVESGGGLVQAGGSLRLSCAASGRTLRRNTMGWYRQAPGKERELVAAISWSGGSTYYADSVKGRFTISRDNPKNTVYLQMNSLKPEDTAVYYCAKVPRIGSYEMGYWGQGTQVTVSS”, the “polyreactivity (PSR sort gate)” value was “high polyreactivity”.
In the case of “QVQLVESGGGLVQAGGSLRLSCAASGRILYCYTMGWYRQAPGKERELVAGITTRGGNTYYADSVKGRFTISRDNAKNSVYLQMNSLKPEDTAVYYCAARFSGPARMDYWGQGTQVTVSS”, the “polyreactivity (PSR sort gate)” value is reported as “low polyreactivity”.
For “QVQLVDSGGGLVQAGGSLRLSCDASGSTFKWYAMGWYRQAPGKERELVAAISWTGASTYYADSVKGRFTISRDNGKNTVYLQMNSLKPEDTAVYYCAADRTYYAMLWTGRSRYDYWGQGTQVTVSS”, the “polyreactivity (PSR sort gate)” value was “high polyreactivity”.
With “QVQLVESGGRLVQAGGSLRLRGAASGNTNIPNAMGWYRQAPGKERELLAAIRASGGSTYYADSVKGRFTISRDNAKNTVYFQLNSLKTEDTSVYYCNADIWYKTYDYWGQGTQVTVSS” the “polyreactivity (PSR sort gate)” value was “low polyreactivity”.
In the case of “QVQLVESGGGLVQAGGSLRLSCAASGRIFGGNVMGWNRQATWKERELVAFITRGTRTNYADSVKGRFTISRDNAKNTVYLQMNSLKPEDNAVFYCAADSRNSRQHTSYNSLNYWGQGTQVTVSS”, the “polyreactivity (PSR sort gate)” value is reported as “high polyreactivity”.
For “QVQLVESGGGLVQAGGSLRLSCAPSGLIFYHYAMGWYRQAPGKERELVAGITRSGGSTYYADSVKGRFTISRDNAKNTVYLQMNSLKPEDTAVYYCAAKSLTTGKYGKYGYWGQGTQVTVSS”, the “polyreactivity (PSR sort gate)” value was “high polyreactivity”.
For “QVQLVESGGGLVQAGGSLRLSCAASGSTFEAYAMGWYRQAPGKERELVAAITWSSGSTYYADSVKGRFTISRDNAKNTVYLQMNSLKPEDTAVYYCNKDWLAYDSLRVPSTIAFDYWGQGTQVTVSS”, the “polyreactivity (PSR sort gate)” value was “low polyreactivity”.
In the case of “QVQLVESGGGLVQAGGSLRLSSAASGSIFSRYAMGWYRQAPGKEREMVAALNGRGSRTYYADSVKGRFTISRDNSKNTVYLLMNSLKPEDTAVYYCAAESYTAWELDYWGQGTQVTVSS”, the “polyreactivity (PSR sort gate)” value is reported as “high polyreactivity”.
With “QVQLVESCGGLVQAGGSLRLSCAASGRIIRKYDMGWYRQAPGKERELVAAISGTGITYYADSVKGRFTISRDNAKNTVYLQMNSLKPEDTAVYYCARGSKPRAWSWAYPSATSIYDYLGQGTQVTVSS” the “polyreactivity (PSR sort gate)” value was “low polyreactivity”.
In the case of “QVQLVESVGGLVQAGGSLRLSCASSGSTFTYYAKVWYRQAPGKERELVAAISCTGTSTYYADSVKGRFTISRDNAKNTVYFQMNSLKPEDTAVYYSASTYRGYSGYKRRDYWGQGTQVTVSS”, the “polyreactivity (PSR sort gate)” value is reported as “high polyreactivity”.
In the case of “QVQLVESGGGLVQAGGSLRLSCAASGSTFNNAMGWYRQAPGKERELVAAITRSGVRTYYADSVKGRFTISRDNAKNTVYLQMNSLKPEDTAVYYCAAGFQSRRYYAGYEDWGQGTQVSVSS”, the “polyreactivity (PSR sort gate)” value is reported as “high polyreactivity”.
In the case of “QVQLVESGGGLVQAGGSLRLSCAASGRIFYGNARGWYRQAPGKERELVATISSSGGRTPYADSVKGRFTISRDNAKNTVYLQMNSLKPEDTAVYYCAAQGYWTGYDYWGQGTQVTVSS”, the “polyreactivity (PSR sort gate)” value is reported as “high polyreactivity”.
In the case of “QVQLVESGGGLVQAGGSLRLSCAASGSTFPLYVMGWYRQSPGKERELVAAIDWSGGSTYYADSVKGRFTISRDNAKNTVFLQMNSLKPVDTAVYYCNRKRYGYDYEYWGQGTQVTVSS”, the “polyreactivity (PSR sort gate)” value is reported as “low polyreactivity”.
For “QLQLVESGGGLVQAGGSLRLSCAASGSTVAYNDMGWYRQAPGKERELVADIRSGGNTNYADSVKGRFTISRDNAKNTVYLQMNSLKTEDTAVYYCATDGYRIDVYHPDYRYDYWGQGTQVTVSS”, the “polyreactivity (PSR sort gate)” value was “low polyreactivity”.
With “QVQLVESGGGLVQAGGSLRLSCAASGRTFYRNAMGWYRQAPGKERELVAAITTSGGRTYYADSVKGRFTISRDNAKNTVYLQMNSLKPEDTAVYYCNAVYYGRTYASGYDYWGQGTQVTVSS” the “polyreactivity (PSR sort gate)” value was “high polyreactivity”.
For “QVQLVETGGGLVQAGGSLRLSCAASGITFYEYALGWYRQAAGKERELVAAISTSGGNTYYAESVKGRFTISRDNAKTTVYLQMNSLKPEDTAVFYCAAQGTASSYSGGDYWGQGTQVTVSS”, the “polyreactivity (PSR sort gate)” value was “low polyreactivity”.
With “QVQLVESGGGLVQAGGSLRLSCAASGGTFALYAMGWYRQAPGKERELVASISFNGGSTYYADSVKGRFTISRDTAKNTVYLQMNSLKPEDTAVYYCNTGYQWGVYESQTAEEDYWGQGTQVTVSS” the “polyreactivity (PSR sort gate)” value was “low polyreactivity”.
With “QVQLVESGGGLVQAGGSLRLSCAASGIIFYKYAMGWYRQAPGKERELVAAINWSGGSTYYADSVKGRFTISRDNAKNTVYLQMNSLKPEDTAVYYCAADRTDFEYYYWGQGTQVTVSS” the “polyreactivity (PSR sort gate)” value was “low polyreactivity”.
For “QVQLVESGGGLVQAGGSLRLSCAASGFIFNTMGWYRQAPGKERELVATMSWSDGSTYYADSVKGRFTISRDNAKNTVYLQMNSLKPEDTAVYYCAATTDALVGRPRYDYWGQGTQVTVSS”, the “polyreactivity (PSR sort gate)” value was “low polyreactivity”.
With “QVQIEESGGGLVQAGGSLRLSCAASASIFYPNAMGWYRQAPVKEREFVAAITRNGDSTYYADSVKGRFTISRDNAKNTVYLQMNSLKPEDTAVYYCNTDGQGIYSYNKDLSWISGYDYWGQGTQVTVSS” the “polyreactivity (PSR sort gate)” value was “low polyreactivity”.
In the case of “QVQLVESGGGLVQAGGSLRLSCAASGSIFAPYAMGRYRQAPGKERELVAAISTTGGTTYYADSVKGRFTISRDNAKNTVYLQMNSLKPEDTAVYYCAADWSESFGKGGDYWGQGTQVTVSS”, the “polyreactivity (PSR sort gate)” value is reported as “low polyreactivity”.
In the case of “QVQLVESGGGLVQAGGSLRLSCAASGSIFSENTMGWYRQAPGKKRELVADITSGGSTNYADSVKGRFTISRDNAKNTVYLQMNSLKPEDTAVYYCAADYNGEYDYWGQGTQVTVSS”, the “polyreactivity (PSR sort gate)” value is reported as “low polyreactivity”.
In the case of “QVQLVESGGGLVQAGGSLRLSCAASGYTFYKNTMGWYRQAPGKERELVARISRSGGSTYYADSVKGRFTISRDNAKNTVYLQMNSLKPEDTAVYYCAVRQGYRSGIYEYDYWGQGTQVTVSS”, the “polyreactivity (PSR sort gate)” value is reported as “high polyreactivity”.
In the case of “QVQLVESGGGLVQAGGSLRLSCAASGRTLVLYVMGWYRQAPGKERELVAAISSGGSTNYADSVKGRFTISRDNAKNTVYLQMNSLKPEDTAVYYCAARFVLRRDYGYGGQGTQVTVSS”, the “polyreactivity (PSR sort gate)” value is reported as “high polyreactivity”.
For “KVQLVESGGGLVQAGGSLRLSCAASGIIFFPYAMAWYRQAPGKERELVASINISDSSTYYADSVKGRFTISRDNAKKTVYLQMNSLKPEDTAVYYGAADNRGDSWYWDGYWGQGTQVTVSS”, the “polyreactivity (PSR sort gate)” value was “low polyreactivity”.
